In PMC11452297 one finds Kd and dH data, which are given here for 1 substance.

The target in the assay is C-terminal domain of FusB (residues 224-324) (Pectobacterium carotovorum). Description: ITC; 480 uM PM1 in the syringe titrated into 20 uM FusB in the cell; VP-ITC, 25 °C, 20 mM sodium phosphate pH 7.5, 150 mM NaCl. A general note: In ITC the heat of successive injections is recorded.

For Pectocin M1 (natural protein), the Kd stood at 8.1 µM and the dH was -6 kcal/mol.

A word on the Kd: it is a measure of binding affinity in units of concentration. The low end stands for tighter binding, the high end for weaker binding.
